Measurements published in the supplement of paper PMC12764529.
± gives the half width of the 95% confidence interval.

Test: folding stability dG unfold from chymotrypsin proteolysis; higher = more stable
Outline: (§1)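 Designed mini-proteins (under 80 residues, no cysteine) in a PA-tagged cDNA display construct were digested with trypsin and chymotrypsin. Each protease was used at 11 concentrations (threefold dilutions) plus a no-protease condition, followed by sequencing. K50 was inferred by Bayesian fitting of sequencing counts, and unfolding free energy was derived against a sequence-predicted unfolded-state K50 and a shared folded-state K50, per protease or combined. Only designs with AlphaFold2 dimer inter-PAE above 15 were kept.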

| Sequence | folding stability dG unfold |
| --- | --- |
| SAGGSAMEIVAVEKGDNTVTLLLRDPETGELYTATFHFIPGSKTVHATVTFPDGSTATFTFDATALSAGGSA [r15_1055_TrMRF] | 4.32 ± 0.068 kcal/mol |
| SAGGSAGGSEKEGTLLVKLINPENPEEKVIPLKFKVKTKEDVDTFLENIKKKYPGVTVEVEDLSAGGSAGGS [r12_65_TrMRF] | 0.684 ± 0.21 kcal/mol |
| SAGGSAGGSNGKKIEIDIFWPRPMAETIVKELWKGSNIKPIKIKVIPMPEDDPKYKEFMDKLKSAGGSAGGS [r12_649_TrROS] | 0.188 ± 0.12 kcal/mol |
| SAGGSAGGSAKVEPVGVDPKNLVVVYRFENFTVAVTYDPESGKVTVRITDPDGNVLEFELSSAGGSAGGSAG [r3_25_TrMRF] | 4.112 ± 0.041 kcal/mol |
| SAGGSAGGKLVIGVFIPGLTPEQAEALVKLLEALGYPKENVTVVVFNVPALPPPGLEELLTKNGSAGGSAGG [r6_243_TrMRF] | 2.75 ± 0.042 kcal/mol |
| SAGGPGWQRIAKWEIPLPNGKDITIEPYYVNPNNNHYMYEIEIGDGKEIPFWVPPGDSPEDALDAILKSAGG [r13_470_TrROS] | -0.126 ± 0.32 kcal/mol |
| SAGGSAGGSAGGEAKIKLEVEETPGGLVIRAEVEVDGKLYEVELRIKGDEIVEVKIKPLDSAGGSAGGSAGG [r7_187_TrROS_Hall] | 2.62 ± 0.2 kcal/mol |
| SAGGSAGGSADVVVEVEYDSSGDYVLVKVKLKEKEIPFKFSKSLSPEEVIEKAKELAKKAAKSAGGSAGGSA [r18_266_TrMRF] | 0.584 ± 0.27 kcal/mol |
| SEEEVEEPEVRVEVREIRLDDLTEEERRRLRELAERLAREEPPEELPPGYRVRVEIRDGVIVSVEVEPVPSA [r9_905_TrROS_Hall] | 1.9 ± 0.075 kcal/mol |
| SAGGSAGGMTFKDPNSNTTASVTEVTPTSVTVTYTLSDGTTRTVTVPTSLVTPDSTVPFTVTSSSAGGSAGG [r6_152_JUSTAS] | 0.789 ± 0.16 kcal/mol |
| SAGGSRRLEFMFYNPEAGFLIKIEVTYDPDDPGYYKIRVEVYPPDGEPIFPVEIYVPPGDDIKIKFPSAGGS [r16_654_TrROS] | 4.42 ± 0.13 kcal/mol |
| SAGGSAMTPVTIELPFEVEADDPEEAIKKAKELAEKLGLKPVEIKEIEVEPGNPKKVTVLMKATILSAGGSA [r15_183_JUSTAS] | 1.36 ± 0.049 kcal/mol |
| SAMNTRTVTLTIERPPGSPETLEAVRARLAALGFTVTSESEEVLPDESLTRVTLTVEDPGVPETLLALLSAG [r14_956_JUSTAS] | 2.03 ± 0.057 kcal/mol |
| SAGGSAGGSADEEKLKELAEKLREAGYEVEVERYPDKVVIRVRNKKTGKTLELVFDSVEEALSAGGSAGGSA [r18_278_TrROS_Hall] | 2.95 ± 0.096 kcal/mol |
| SAGGKKKPPKVKIVSIEVEVFKNENGEKFVKVKIKFEKTNKIITITVPPGMTLEELAKKLNIEIEKESAGGS [r16_676_TrROS_Hall] | 3.04 ± 0.041 kcal/mol |
| SAGGSAGGKIEIVFETPSGDIVPITYDPKTKKVDVTVRNKDGKPSEELKEKAIELAKKLIEELESAGGSAGG [r6_224_TrMRF] | 1.05 ± 0.15 kcal/mol |
| SAGGVVTVTVDPNSDKVTAYTTRTVTVYFNELGIWKEEEVTDVVTMSQEELEKLKEESGLPMVIVGASAGGS [r8_337_JUSTAS] | -0.0773 ± 0.19 kcal/mol |
| SAGGNPASATVTINEDILVNGSPEEARALVEARAKAEGITITDVTITPVPGDPSVYRVSATFSKTLASAGGS [r8_479_JUSTAS] | 1.9 ± 0.1 kcal/mol |
| SAGMVRIELRPRPDGRPIALIDVGAPGGPPRRFEIEVDETETLDDIAERLRAEGFDLPEGIDLEELAGSAGG [r19_263_TrMRF] | 2.243 ± 0.011 kcal/mol |
| SAGELEVTVTVRTETRTETREEEERRRREAAPPVRLRVFFPDTGLAVELEFDANGNIVSVKVTELPEDLSAG [r5_342_TrROS_Hall] | 2.67 ± 0.051 kcal/mol |
| SAGGSAGGKKKTIVIKADSLEELKAALEALPEKVEVRLPNGETITLEVDGKKVEIKVISPEELKSAGGSAGG [r6_641_TrROS_Hall] | 0.959 ± 0.048 kcal/mol |

| Sequence | folding stability dG unfold |
| --- | --- |
| SAGGSAGGPLVFEADATGTAPDDKELVIERVLVVVDPVRGEAHLYARIPGTGEWRYLGTFDLKDSAGGSAGG [r6_329_TrMRF] | 3.315 ± 0.023 kcal/mol |
| SAGGSAGVKSSSPNGLTLEFPFESEEEVEEAVKEIKKAFPENYEVKIEIEKSEKILKVKIIVKKKDSAGGSA [r15_80_TrMRF] | 2.14 ± 0.061 kcal/mol |
| SAGGIDLDNMSPEEAKERARDTVREFRELFPPEKKYKFKIKVTIDYRDPGNGRQRTVTVEAPIEFTPDSAGG [r13_385_TrROS] | 0.862 ± 0.28 kcal/mol |
| SAGGMTITFPEGITITFSPDNTATVTINFPGNPLTLTLNATTLEEVIETAKKAAEEFRKPPPKLVLKVSAGG [r13_896_JUSTAS] | 1.72 ± 0.1 kcal/mol |
| SAGGSAGGRIMIPVKNIKGQPAEEAKQWLKAILRELFPPGMKIDIDVQPDKDGEYWVTIDIKPPSAGGSAGG [r6_964_TrROS] | 2.48 ± 0.099 kcal/mol |
| SKKKVKTETVTLKIVNEKTGEEVELTLEFYEDGTVVKVTFPDGTTKEIKVGKTLEELLSLPPNAKIELIPSA [r9_781_TrROS_Hall] | 2 ± 0.11 kcal/mol |
| SAGGSKKTYIVDSPEEIAKLIESIPEEEYVFAIKGRPDGKPVVEIYSKENIEEAIKENPEIIIPVGSAGGSA [r2_351_TrMRF] | 0.641 ± 0.068 kcal/mol |
| SAGGSAGGMSIKVEVPGPYTVKIYRPDGKPIGEIEGEPGSVIEIDLNVPPGEAKNLIIEVYPTDSAGGSAGG [r6_471_TrMRF] | 2.58 ± 0.067 kcal/mol |
| SALEANIKKAEELAKPEEKVPEFPVKVGDLYIKSVRFFPSTKKVVLFLPNGEKIEADPNVTLEEILKAISAG [r14_59_TrMRF] | 0.254 ± 0.13 kcal/mol |
| SAGKEVEIKIEIVIKMTPEELKKLAEELAKKLKEAGFEVEVTVEEKEVNGELYAVITVTVRLPPGAKPPSAG [r5_217_TrROS_Hall] | 4.11 ± 0.26 kcal/mol |
| SAGGSMMKVTIVDKDGKERVFTFPKDMTEEEVLERIKKELEAEGVEVEEVEVERREDGSLVIRVKKSAGGSA [r2_148_TrROS_Hall] | 3.71 ± 0.064 kcal/mol |
| SAGAKIVSVEKVNGEKKITIKVKKEGDEIVIVFPKKNAKIEKKKNGTIEITIKEGETVIIVLKVKKKKSAGG [r19_227_TrROS_Hall] | 3.29 ± 0.082 kcal/mol |
| SAGGSAGGSAGTIPLDNIKEVELEYDPNSGYYEHRIEFPNGRRLVIRFPPSDNVEIQWLDSAGGSAGGSAGG [r17_182_TrROS] | 1.33 ± 0.062 kcal/mol |
| SDDPKDKKKPKPEITMVPIVFKIPPGDELKIEEDPNGMIEVRVPNGHWIRVWILVNPDGNILNVMIEPWPSA [r9_1195_TrROS] | 3.21 ± 0.066 kcal/mol |
| SARRDGSKVFLELERVVPLDVPLETVLEEVRRLFPEDAEIRLEAVPRRDLLDGVPREYRVVRVIVVRDDSAG [r14_633_TrMRF] | 2.16 ± 0.039 kcal/mol |
| SAMTKLVEFDSEEEYEAAVKAAAAAGESVLARLKDPSGTYTVVEVEVDPETGTVTVKKTEKVPVDGSLGSAG [r14_455_JUSTAS] | 1.37 ± 0.027 kcal/mol |
| SAGKKYIVVVNVDFGSPEKKESAPIVLELDEDEEVSEALAKIPGLEDVKVEVYVIEAEENPELAENPGSAGG [r19_339_TrMRF] | 1.38 ± 0.083 kcal/mol |
| SAGKFKIVKVEIKDGKITITVKNEKTGELVKKEITFDKKTKKLKIKLYNKNGKLIKEETKTLSLEELKKSAG [r5_308_TrROS_Hall] | 2.66 ± 0.071 kcal/mol |
| SAGIEIRIEAYMPWEEARDQVKEIARWLMSMFPGFKVDIDVDHEPVPNNMWVATVTIKIEPLPPGQPIFSAG [r5_936_TrROS] | 4.79 ± 0.066 kcal/mol |
| SAGGSAGGSAGKAVFIRELENGAIVLAVPFPDSVRLRVFPLTPGGEVESVEEFTLAPEELSAGGSAGGSAGG [r11_88_TrMRF] | 0.842 ± 0.088 kcal/mol |
| SAGGSAGGSAGKVEITVEKNPETGLYTVRIKTEDGKEIEITVPKNMTLEELKKLAEELLKSAGGSAGGSAGG [r17_161_TrROS_Hall] | 4.42 ± 0.11 kcal/mol |

Test: folding stability dG unfold from trypsin proteolysis; higher = more stable
Outline: as §1

| Sequence | folding stability dG unfold |
| --- | --- |
| SAGGSAMEIVAVEKGDNTVTLLLRDPETGELYTATFHFIPGSKTVHATVTFPDGSTATFTFDATALSAGGSA [r15_1055_TrMRF] | 2.82 ± 0.09 kcal/mol |
| SAGGSAGGSEKEGTLLVKLINPENPEEKVIPLKFKVKTKEDVDTFLENIKKKYPGVTVEVEDLSAGGSAGGS [r12_65_TrMRF] | 0.659 ± 0.049 kcal/mol |
| SAGGSAGGSNGKKIEIDIFWPRPMAETIVKELWKGSNIKPIKIKVIPMPEDDPKYKEFMDKLKSAGGSAGGS [r12_649_TrROS] | 0.109 ± 0.079 kcal/mol |
| SAGGSAGGSAKVEPVGVDPKNLVVVYRFENFTVAVTYDPESGKVTVRITDPDGNVLEFELSSAGGSAGGSAG [r3_25_TrMRF] | 2.24 ± 0.077 kcal/mol |
| SAGGSAGGKLVIGVFIPGLTPEQAEALVKLLEALGYPKENVTVVVFNVPALPPPGLEELLTKNGSAGGSAGG [r6_243_TrMRF] | 1.77 ± 0.071 kcal/mol |
| SAGGPGWQRIAKWEIPLPNGKDITIEPYYVNPNNNHYMYEIEIGDGKEIPFWVPPGDSPEDALDAILKSAGG [r13_470_TrROS] | -0.194 ± 0.2 kcal/mol |
| SAGGSAGGSAGGEAKIKLEVEETPGGLVIRAEVEVDGKLYEVELRIKGDEIVEVKIKPLDSAGGSAGGSAGG [r7_187_TrROS_Hall] | 2.13 ± 0.097 kcal/mol |
| SAGGSAGGSADVVVEVEYDSSGDYVLVKVKLKEKEIPFKFSKSLSPEEVIEKAKELAKKAAKSAGGSAGGSA [r18_266_TrMRF] | 0.597 ± 0.098 kcal/mol |
| SEEEVEEPEVRVEVREIRLDDLTEEERRRLRELAERLAREEPPEELPPGYRVRVEIRDGVIVSVEVEPVPSA [r9_905_TrROS_Hall] | 1.84 ± 0.039 kcal/mol |
| SAGGSAGGMTFKDPNSNTTASVTEVTPTSVTVTYTLSDGTTRTVTVPTSLVTPDSTVPFTVTSSSAGGSAGG [r6_152_JUSTAS] | 0.983 ± 0.032 kcal/mol |
| SAGGSRRLEFMFYNPEAGFLIKIEVTYDPDDPGYYKIRVEVYPPDGEPIFPVEIYVPPGDDIKIKFPSAGGS [r16_654_TrROS] | 3.54 ± 0.35 kcal/mol |
| SAGGSAMTPVTIELPFEVEADDPEEAIKKAKELAEKLGLKPVEIKEIEVEPGNPKKVTVLMKATILSAGGSA [r15_183_JUSTAS] | 1.74 ± 0.066 kcal/mol |
| SAMNTRTVTLTIERPPGSPETLEAVRARLAALGFTVTSESEEVLPDESLTRVTLTVEDPGVPETLLALLSAG [r14_956_JUSTAS] | 1.65 ± 0.021 kcal/mol |
| SAGGSAGGSADEEKLKELAEKLREAGYEVEVERYPDKVVIRVRNKKTGKTLELVFDSVEEALSAGGSAGGSA [r18_278_TrROS_Hall] | 4.24 ± 0.12 kcal/mol |
| SAGGKKKPPKVKIVSIEVEVFKNENGEKFVKVKIKFEKTNKIITITVPPGMTLEELAKKLNIEIEKESAGGS [r16_676_TrROS_Hall] | 1.67 ± 0.048 kcal/mol |
| SAGGSAGGKIEIVFETPSGDIVPITYDPKTKKVDVTVRNKDGKPSEELKEKAIELAKKLIEELESAGGSAGG [r6_224_TrMRF] | 0.29 ± 0.25 kcal/mol |
| SAGGVVTVTVDPNSDKVTAYTTRTVTVYFNELGIWKEEEVTDVVTMSQEELEKLKEESGLPMVIVGASAGGS [r8_337_JUSTAS] | 0.216 ± 0.061 kcal/mol |
| SAGGNPASATVTINEDILVNGSPEEARALVEARAKAEGITITDVTITPVPGDPSVYRVSATFSKTLASAGGS [r8_479_JUSTAS] | 1.91 ± 0.038 kcal/mol |
| SAGMVRIELRPRPDGRPIALIDVGAPGGPPRRFEIEVDETETLDDIAERLRAEGFDLPEGIDLEELAGSAGG [r19_263_TrMRF] | 1.08 ± 0.018 kcal/mol |
| SAGELEVTVTVRTETRTETREEEERRRREAAPPVRLRVFFPDTGLAVELEFDANGNIVSVKVTELPEDLSAG [r5_342_TrROS_Hall] | 1.87 ± 0.11 kcal/mol |
| SAGGSAGGKKKTIVIKADSLEELKAALEALPEKVEVRLPNGETITLEVDGKKVEIKVISPEELKSAGGSAGG [r6_641_TrROS_Hall] | 0.448 ± 0.039 kcal/mol |
